As usually defined, the Kd is a measure of binding affinity in units of concentration.

B1: Ie_S4_P5E.1_K5.1_C5.1_H5.1_A5.1_F5.1_[+10TCC]_T5.1 (ssRNA)
RNA: UUUGACAACUGAUCGUUCUUUCUUGUAUUAUUAUCCUUCUUUCUCGAUCAGUUGUCUUU
B2: Ie_S4_P5E.1_K5.1_C5.1_H5.1_A5.1_F5.1_[+9CCTCT]_T5.1 (ssRNA)
RNA: UUUGACAACUGAUCGUUCUUUCUUGUAUUAUUCCUCUAUUCUUUCUCGAUCAGUUGUCUUU
B3: Ie_S4_P5E.1_K5.1_C5.1_H5.1_A5.1_F5.1_[+10TCTCT]_T5.1 (ssRNA)
RNA: UUUGACAACUGAUCGUUCUUUCUUGUAUUAUUAUCUCUUUCUUUCUCGAUCAGUUGUCUUU
B4: Ie_S4_P5E.1_K5.1_C5.1_H5.1_A5.1_F5.1_[+10TT]_T5.1 (ssRNA)
RNA: UUUGACAACUGAUCGUUCUUUCUUGUAUUAUUAUUUUCUUUCUCGAUCAGUUGUCUUU
B5: Ib_S2_P3E.1_K3.1_C3.1_H3.1_[A4T]_A3.1_[A6T]_F3.1_T3.1 (ssRNA)
RNA: UUUGAUUAAUAUGAUAUCGUUCUUUCUUGUUUUUAUUCUUUCUCGAUAUCAUAUUAAUCUUU
B6: Ib_S2_P3E.1_K3.1_C3.1_H3.1_A3.1_[T5A]_[A6C]_F3.1_T3.1 (ssRNA)
RNA: UUUGAUUAAUAUGAUAUCGUUCUUUCUUGUAACUAUUCUUUCUCGAUAUCAUAUUAAUCUUU
B7: Ib_S2_P3E.1_K3.1_C3.1_H3.1_A3.1_[T5C]_[A6T]_F3.1_T3.1 (ssRNA)
RNA: UUUGAUUAAUAUGAUAUCGUUCUUUCUUGUACUUAUUCUUUCUCGAUAUCAUAUUAAUCUUU
B8: Ic_S2_P3E.1_K3.1_C3.1_H3.1_A3.1_[T5C]_[A6C]_F3.1_T3.1 (ssRNA)
RNA: UUUGAUUAAUAUGAUAUCGUUCUUUCUUGUACCUAUUCUUUCUCGAUAUCAUAUUAAUCUUU
B9: Ic_S2_P3E.1_K3.1_C3.1_H3.1_A3.1_[T5G]_[A6T]_F3.1_T3.1 (ssRNA)
RNA: UUUGAUUAAUAUGAUAUCGUUCUUUCUUGUAGUUAUUCUUUCUCGAUAUCAUAUUAAUCUUU
B10: Ic_S2_P3E.1_K3.1_C3.1_H3.1_A3.1_[A6C]_F3.1_T3.1 (ssRNA)
RNA: UUUGAUUAAUAUGAUAUCGUUCUUUCUUGUAUCUAUUCUUUCUCGAUAUCAUAUUAAUCUUU
B11: Ic_S2_P3E.1_K3.1_C3.1_H3.1_A3.1_[A6T]_F3.1_T3.1 (ssRNA)
RNA: UUUGAUUAAUAUGAUAUCGUUCUUUCUUGUAUUUAUUCUUUCUCGAUAUCAUAUUAAUCUUU
B12: Ic_S2_P3E.1_K3.1_C3.1_H3.1_A3.1_[T5C]_[A6G]_F3.1_T3.1 (ssRNA)
RNA: UUUGAUUAAUAUGAUAUCGUUCUUUCUUGUACGUAUUCUUUCUCGAUAUCAUAUUAAUCUUU
B13: Ic_S2_P3E.1_K3.1_C3.1_H3.1_A3.1_[T5A]_[A6T]_F3.1_T3.1 (ssRNA)
RNA: UUUGAUUAAUAUGAUAUCGUUCUUUCUUGUAAUUAUUCUUUCUCGAUAUCAUAUUAAUCUUU
B14: Ib_S2_P4E.1_K4.1_C4.1_H4.1_A4.1_F4.1_[T8G]_[A9G]_T4.1 (ssRNA)
RNA: UUUGAUUAAUAUGAUAUCGUUCUUUCUUGUAUAUGGUUCUUUCUCGAUAUCAUAUUAAUCUUU
B15: Ic_S2_P4E.1_K4.1_C4.1_H4.1_A4.1_F4.1_[T8G]_[A9C]_T4.1 (ssRNA)
RNA: UUUGAUUAAUAUGAUAUCGUUCUUUCUUGUAUAUGCUUCUUUCUCGAUAUCAUAUUAAUCUUU
B16: Ib_S2_P4E.1_K4.1_C4.1_H4.1_[T1G]_A4.1_F4.1_[A9T]_T4.1 (ssRNA)
RNA: UUUGAUUAAUAUGAUAUCGUUCUUUCUGGUAUAUUUUUCUUUCUCGAUAUCAUAUUAAUCUUU
B17: Ib_S2_P4E.1_K4.1_C4.1_H4.1_[G2T]_A4.1_F4.1_[A9G]_T4.1 (ssRNA)
RNA: UUUGAUUAAUAUGAUAUCGUUCUUUCUUUUAUAUUGUUCUUUCUCGAUAUCAUAUUAAUCUUU
B18: Ib_S2_P4E.1_K4.1_C4.1_H4.1_[A4T]_A4.1_F4.1_[T8A]_T4.1 (ssRNA)
RNA: UUUGAUUAAUAUGAUAUCGUUCUUUCUUGUUUAUAAUUCUUUCUCGAUAUCAUAUUAAUCUUU
B19: Ib_S2_P4E.1_K4.1_C4.1_H4.1_A4.1_F4.1_[T8A]_[A9C]_T4.1 (ssRNA)
RNA: UUUGAUUAAUAUGAUAUCGUUCUUUCUUGUAUAUACUUCUUUCUCGAUAUCAUAUUAAUCUUU
B20: Ib_S2_P4E.1_K4.1_C4.1_H4.1_[A4G]_A4.1_F4.1_[T8C]_T4.1 (ssRNA)
RNA: UUUGAUUAAUAUGAUAUCGUUCUUUCUUGUGUAUCAUUCUUUCUCGAUAUCAUAUUAAUCUUU
B21: Ib_S2_P4E.1_K4.1_C4.1_H4.1_[T1A]_A4.1_F4.1_[A9T]_T4.1 (ssRNA)
RNA: UUUGAUUAAUAUGAUAUCGUUCUUUCUAGUAUAUUUUUCUUUCUCGAUAUCAUAUUAAUCUUU
B22: Ib_S2_P4E.1_K4.1_C4.1_H4.1_[T1C]_A4.1_F4.1_[T8A]_T4.1 (ssRNA)
RNA: UUUGAUUAAUAUGAUAUCGUUCUUUCUCGUAUAUAAUUCUUUCUCGAUAUCAUAUUAAUCUUU
B23: Ia_S2_P4E.1_K4.1_C4.1_H4.1_A4.1_F4.1_[T8C]_T4.1 (ssRNA)
RNA: UUUGAUUAAUAUGAUAUCGUUCUUUCUUGUAUAUCAUUCUUUCUCGAUAUCAUAUUAAUCUUU
B24: Ib_S2_P4E.1_K4.1_C4.1_H4.1_[T1C]_A4.1_F4.1_[A9C]_T4.1 (ssRNA)
RNA: UUUGAUUAAUAUGAUAUCGUUCUUUCUCGUAUAUUCUUCUUUCUCGAUAUCAUAUUAAUCUUU
B25: Ib_S2_P4E.1_K4.1_C4.1_H4.1_[A4T]_A4.1_F4.1_[T8C]_T4.1 (ssRNA)
RNA: UUUGAUUAAUAUGAUAUCGUUCUUUCUUGUUUAUCAUUCUUUCUCGAUAUCAUAUUAAUCUUU
B26: Ib_S2_P4E.1_K4.1_C4.1_H4.1_A4.1_F4.1_[T8A]_[A9G]_T4.1 (ssRNA)
RNA: UUUGAUUAAUAUGAUAUCGUUCUUUCUUGUAUAUAGUUCUUUCUCGAUAUCAUAUUAAUCUUU
B27: Ic_S2_P4E.1_K4.1_C4.1_H4.1_A4.1_F4.1_[T8G]_[A9T]_T4.1 (ssRNA)
RNA: UUUGAUUAAUAUGAUAUCGUUCUUUCUUGUAUAUGUUUCUUUCUCGAUAUCAUAUUAAUCUUU
B28: Ic_S2_P4E.1_K4.1_C4.1_H4.1_A4.1_F4.1_[T8C]_[A9G]_T4.1 (ssRNA)
RNA: UUUGAUUAAUAUGAUAUCGUUCUUUCUUGUAUAUCGUUCUUUCUCGAUAUCAUAUUAAUCUUU
B29: Ic_S2_P4E.1_K4.1_C4.1_H4.1_A4.1_F4.1_[T8C]_[A9C]_T4.1 (ssRNA)
RNA: UUUGAUUAAUAUGAUAUCGUUCUUUCUUGUAUAUCCUUCUUUCUCGAUAUCAUAUUAAUCUUU
B30: Ib_S2_P4E.1_K4.1_C4.1_H4.1_[A4C]_A4.1_F4.1_[T8C]_T4.1 (ssRNA)
RNA: UUUGAUUAAUAUGAUAUCGUUCUUUCUUGUCUAUCAUUCUUUCUCGAUAUCAUAUUAAUCUUU
B31: Ib_S2_P4E.1_K4.1_C4.1_H4.1_[G2C]_A4.1_F4.1_[T8C]_T4.1 (ssRNA)
RNA: UUUGAUUAAUAUGAUAUCGUUCUUUCUUCUAUAUCAUUCUUUCUCGAUAUCAUAUUAAUCUUU
B32: Ib_S2_P4E.1_K4.1_C4.1_H4.1_[A4G]_A4.1_F4.1_[T8A]_T4.1 (ssRNA)
RNA: UUUGAUUAAUAUGAUAUCGUUCUUUCUUGUGUAUAAUUCUUUCUCGAUAUCAUAUUAAUCUUU

The data set addresses T1, PUF4 RNA-binding domain (Saccharomyces cerevisiae, UniProt P25339 537-888).
T1 sequence: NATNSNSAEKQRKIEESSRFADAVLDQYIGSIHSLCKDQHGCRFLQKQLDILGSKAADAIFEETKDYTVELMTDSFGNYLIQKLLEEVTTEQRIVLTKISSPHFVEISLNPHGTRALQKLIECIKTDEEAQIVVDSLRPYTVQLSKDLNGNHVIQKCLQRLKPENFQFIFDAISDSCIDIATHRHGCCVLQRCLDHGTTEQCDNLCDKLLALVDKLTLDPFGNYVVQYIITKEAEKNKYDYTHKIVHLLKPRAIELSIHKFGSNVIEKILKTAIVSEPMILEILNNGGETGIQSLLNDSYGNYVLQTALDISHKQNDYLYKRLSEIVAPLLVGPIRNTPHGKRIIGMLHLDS
The data set can be described thus: Mg; RNA-MaP; 20 mM Na-HEPES pH 7.4, 30 mM KOAc, 0.75 mM MgCl2, 0.1% Tween-20, 5% glycerol, 0.1 mg/mL BSA, 2 mM DTT; 25 C; 0.0125-409.6 nM protein. The settings on record: tags: N-His6-TEV cleaved; C-SNAP kept, Cy3B-labelled; label: tethered on chip by stalled RNA polymerase.
UCUCUUCGUAUAUAUCUCUU (ssRNA) [Ia_S1_P3E.1_K3.1_C3.1_H3.1_[T1C]_A3.1_F3.1_T3.1] gave a Kd of 1180 nM.
For the molecule B1, binding was characterised by a dissociation constant (Kd) of 5.62 nM.
For B2 the value was 17.8 nM; for B3, 3.65 nM.
For B4 the value was 2.52 nM; for B5, 576 nM.
B6 showed a Kd of 66 nM.
With B7, the affinity, expressed as Kd, was 14.8 nM.
With B8, the Kd worked out at 10.6 nM.
In the case of B9, the Kd is 181 nM.
In the case of B10, the equilibrium dissociation constant (Kd) was 8.48 nM.
B11 registered a Kd of 11.4 nM.
With B12, the Kd came to 33.1 nM.
As for B13, the affinity, expressed as Kd, was 72.2 nM.
For B14 the value was 58.6 nM; for B15, 15.4 nM.
Molecule B16 registered a Kd of 1380 nM.
In the case of B17 it was above 2300 nM; in that of B18, 122 nM; in that of B19, 6.86 nM.
B20 had a Kd of 16.2 nM.
In turn, B21 returned a Kd of 1380 nM.
For the molecule B22, the affinity, expressed as Kd, was 451 nM.
For the molecule B23, the Kd is 7.94 nM.
As to B24, the Kd came out at 607 nM.
B25 had a Kd of 1250 nM.
In the case of B26 it was 9.03 nM; in that of B27, 5.99 nM; in that of B28, 7.89 nM.
In the case of B29 it was 8.44 nM; in that of B30, above 2300 nM; in that of B31, 848 nM.
Regarding B32, binding was put at a Kd of 3.78 nM.

Values taken from PMC9352680, “A comprehensive thermodynamic model for RNA binding by the Saccharomyces cerevisiae Pumilio protein PUF4”.
